The target in test [1] is T1, p75^NTR ICD (Homo sapiens, UniProt P08138).
T1 construct: peptide array data of Rab31 peptides with p75^NTR intracellular domain (ICD)
T1 sequence (P08138 273-427 limits assumed): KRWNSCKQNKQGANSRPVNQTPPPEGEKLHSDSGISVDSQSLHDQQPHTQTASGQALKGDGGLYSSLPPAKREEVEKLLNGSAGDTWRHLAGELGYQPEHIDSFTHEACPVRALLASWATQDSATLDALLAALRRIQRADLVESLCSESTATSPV
In words: Peptide array of Rab31 peptides with GST-p75^NTR ICD. Type of test: binding. The note with it: peptide array of overlapping Rab31 peptides, 1 μg/ml GST-p75^NTR ICD. The procedure: Peptide arrays were manufactured by Kinexus Bioinformatics Corporation (Vancouver, Canada). Synthetic overlapping peptides (25 amino acids in length) for Rab31 were spotted on nitrocellulose membranes. Membranes were overlaid with 1 μg/ml recombinant GST-p75^NTR ICD. Bound recombinant GST-p75ICD were detected using rabbit anti-p75^NTR (1:1000, Millipore) followed by secondary anti-rabbit horseradish peroxidase antibody (1:5000, Cell Signaling).

Test [2] deals with 3T3L1 adipocytes. Kind of test: Glucose uptake assay in 3T3L1 adipocytes. It counts as cell-based, mouse. Particulars: for glucose uptake: addition of neurotrophin ligand, 100 ng/ml NGF or 50 ng/ml BDNF; for basal and insulin-stimulated glucose uptake: neurotrophin treatment for 1 h before insulin stimulation. The method, then:
3T3L1 cells were maintained in DMEM containing 10% bovine serum. All media were supplemented with 1% penicillin/streptomycin (Invitrogen). Mouse embryonic fibroblasts (MEFs) were isolated from wild-type (WT) and p75^NTR−/− embryos as described (5). Briefly, heads and internal organs were removed from E12-14 embryos, and the remaining embryo was minced with scissors. Ten ml of ice cold phosphate-buffered saline (PBS) was added and minced embryos were centrifuged for 5 minutes at 500×g. Each embryo was resuspended in 7.5 ml Trypsin-EDTA for 20 minutes at 37° C. with occasional shaking. After trypsin deactivation by 7.5 ml DMEM with 10% FBS the suspension was poured through a 70 μm filter and cells were cultured in DMEM with 10% fetal bovine serum (FBS). Differentiation of 3T3L1 cells and MEFs was performed as described (6). Briefly, differentiation was induced by incubating confluent monolayers for 3 days in DMEM containing 10% fetal bovine serum (FBS), 0.5 mM 3-isobutyl-1-methylxanthine, 0.4 μg/ml dexamethasone, and 1 μg/ml of insulin. Medium was replaced every 2 days with DMEM containing 10% FBS. After 8-12 days, 75% of the cells expressed the adipocyte phenotype as assessed by Oil Red O. Isolation of primary adipocytes from epididymal fat pads was performed as described (7). Briefly, fat pads were minced in Krebs-Ringer Bicarbonate-Hepes (KRBH) buffer, pH 7.4, treated with collagenase (Invitrogen) for 40 min, filtered through a nylon strainer and centrifuged at 400×g for 1 minute. Fully-differentiated adipocytes were transfected by electroporation using Amaxa Cell Line Nucleofector kit L (Lonza) following manufacturer's instructions. For p75^NTR knockdown experiments, 3T3L1 cells were differentiated for 6-8 days and infected with lentivirus encoding a short hairpin shRNA for mouse p75^NTR (8) and L6 myocytes were transfected with siGENOME SMART pool for rat p75^NTR (Thermo Scientific).
Fully differentiated 3T3L1 adipocytes and eight day differentiated WT and p75^NTR−/− MEFs were serum-starved for 3 hrs in DMEM and then equilibrated in Hepes/Salt (H/S) buffer for 30 min prior to treatment with 100 nM insulin for 30 min at 37° C. Thirty min after the addition of insulin, [^3H]-2-deoxyglucose (Amersham) and 2 mM 2-deoxyglucose (Sigma) in H/S buffer was added. After incubation at 37° C. for 10 min, the reactions were terminated by washing twice with ice-cold PBS. Cells were lysed in 1 M NaOH for 30 min at room temperature. An equal volume of 1 M HCl was added and incorporated radioactivity was measured by liquid scintillation counting. […] The fat cells were isolated and the level of radioactivity was counted. […]

The test system of test [3] is Rab5. In words: Peptide array mapping of p75ICD peptides with GST-Rab5. Type of test: binding. Particulars: peptide array of overlapping p75ICD peptides, 1 μg/ml GST-Rab5. The method, then:
(§1) Peptide arrays were manufactured by Kinexus Bioinformatics Corporation (Vancouver, Canada). Synthetic overlapping peptides (25 amino acids in length) for p75ICD were spotted on nitrocellulose membranes. Membranes were overlaid with 1 μg/ml recombinant GST-Rab31, GST-Rab5 and p75^NTR ICD. Bound recombinant GST-Rab31 and GST-Rab5 were detected using rabbit anti-GST (1:1000, Cell Signaling) and bound recombinant p75ICD was detected using rabbit anti-p75^NTR (1:1000, Millipore) followed by secondary anti-rabbit horseradish peroxidase antibody (1:5000, Cell Signaling).

In test [4] the target is T2, Rab31 (Homo sapiens, UniProt Q13636).
T2 sequence (Q13636 1-195): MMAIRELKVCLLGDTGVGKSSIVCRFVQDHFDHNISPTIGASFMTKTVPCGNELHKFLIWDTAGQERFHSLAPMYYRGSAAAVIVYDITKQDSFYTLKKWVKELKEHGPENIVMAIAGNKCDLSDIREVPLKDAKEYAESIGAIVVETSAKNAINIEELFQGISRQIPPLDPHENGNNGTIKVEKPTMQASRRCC
Kind of test: Peptide array mapping of p75ICD peptides with GST-Rab31. Type of test: binding. Particulars: peptide array of overlapping p75ICD peptides, 1 μg/ml GST-Rab31. The procedure: as §1

Consider EHGPENIVMAIAGNK [Peptide 6], for which the “binding to p75^NTR ICD” value in test [1] is “binds”.

Turning to “NGF: p75^NTR neurotrophin ligand, nerve growth factor (Peprotech)”, in test [2], the glucose uptake result is given as “did not affect”; the “basal and insulin-stimulated glucose uptake” value is reported as “No statistically significant differences”.

With “LLASWATQDSATLDA [peptide 7, p75^NTR ICD death-domain peptide, aa 386-400, helix 4 and region between helixes 4 and 5]”, the “interaction with Rab5-GST” value in test [3] is recorded as “strongest interactions”. Further, in test [4], the “interaction with Rab31-GST” value was “strongest interactions”.

B1: BDNF: p75^NTR neurotrophin ligand, brain-derived neurotrophic factor (Peprotech) (protein, UniProt P23560 19-247, looked up)
Neurotrophic factor BDNF …: APMKEANIRGQGGLAYPGVRTHGTLESVNGPKAGSRGLTSLADTFEHVIEELLDEDQKVRPNEENNKDADLYTSRVMLSSQVPLEPPLLFLLEEYKNYLDAANMSMRVRRHSDPARRGELSVCDSISEWVTAADKKTAVDMSGGTVTVLEKVPVSKGQLKQYFYETKCNPMGYTKEGCRGIDKRHWNSQCRTTQSYVRALTMDSKKRIGWRFIRIDTSCVCTLTIKRGR
B1: in test [2], the glucose uptake result is recorded as “did not affect”; the “basal and insulin-stimulated glucose uptake” value was “No statistically significant differences”.
